For three molecules, pKd results are on record in article PMC9482650, “Quantitative fragmentomics allow affinity mapping of interactomes” (Nature Communications, 2022).

Among the targets are DLG5_2, Q8TDM6; Inadl_7, Q8NI35; MAGIX, Q9H6Y5; MAST3, O60307; NHERF2_1, Q15599; PARD3_1, Q8TEW0; PDZD9, Q8IXQ8; PREX1_1, Q8TCU6; SDCBP_1, O00560.
Experiment in all cases: holdup assay
Common to all, as to design: key: below the threshold = too weak to quantify, mostly under pKd 3.1 to 4

In another assay the target is T1, MPDZ_11, O75970.
T1 sequence (O75970 1720-1817, limits assumed, looked up): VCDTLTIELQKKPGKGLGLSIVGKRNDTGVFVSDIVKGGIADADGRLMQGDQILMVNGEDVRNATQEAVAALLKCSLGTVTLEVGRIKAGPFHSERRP

For the next assay, the target named is T2, MPDZ_6, O75970.
T2 sequence (O75970 1003-1099, limits assumed, looked up): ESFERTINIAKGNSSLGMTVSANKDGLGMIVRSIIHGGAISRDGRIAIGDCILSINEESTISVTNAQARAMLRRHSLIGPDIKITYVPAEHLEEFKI

The target of the next assay is T3, MPDZ_7, O75970.
T3 sequence (O75970 1146-1253, limits assumed, looked up): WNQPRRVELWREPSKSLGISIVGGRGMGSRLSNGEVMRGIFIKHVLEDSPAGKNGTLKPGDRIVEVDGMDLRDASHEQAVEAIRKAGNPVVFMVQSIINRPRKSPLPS

The target in a further assay is T4, NHERF1_1, O14745.
T4 sequence (O14745 9-104, limits assumed, looked up): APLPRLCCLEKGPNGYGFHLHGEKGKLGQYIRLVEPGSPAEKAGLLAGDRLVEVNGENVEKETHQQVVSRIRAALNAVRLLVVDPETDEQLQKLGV

The target of another assay is T5, PARD6B, Q9BYG5.
T5 sequence (Q9BYG5 152-260, limits assumed, looked up): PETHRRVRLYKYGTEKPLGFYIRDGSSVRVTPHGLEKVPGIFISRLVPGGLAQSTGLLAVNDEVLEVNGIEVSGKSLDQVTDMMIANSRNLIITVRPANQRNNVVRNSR

For the next assay, the target named is T6, PARD6G, Q9BYG4.
T6 sequence (Q9BYG4 153-261, limits assumed, looked up): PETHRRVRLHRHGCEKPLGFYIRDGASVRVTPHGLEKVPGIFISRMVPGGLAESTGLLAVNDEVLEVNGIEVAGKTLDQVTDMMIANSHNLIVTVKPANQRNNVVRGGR

For the next assay, the target named is T7, PDZD2_1, O15018.
T7 sequence (O15018 80-192, limits assumed, looked up): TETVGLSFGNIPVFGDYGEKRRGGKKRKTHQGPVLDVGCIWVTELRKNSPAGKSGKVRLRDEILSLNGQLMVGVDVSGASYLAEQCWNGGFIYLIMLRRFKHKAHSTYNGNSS

Another assay addresses T8, PDZD2_4, O15018.
T8 sequence (O15018 723-823, limits assumed, looked up): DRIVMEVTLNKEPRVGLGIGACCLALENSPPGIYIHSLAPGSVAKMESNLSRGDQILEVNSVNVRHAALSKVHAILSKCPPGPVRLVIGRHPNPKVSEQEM

A further assay addresses T9, PDZD2_6, O15018.
T9 sequence (O15018 2745-2839, limits assumed, looked up): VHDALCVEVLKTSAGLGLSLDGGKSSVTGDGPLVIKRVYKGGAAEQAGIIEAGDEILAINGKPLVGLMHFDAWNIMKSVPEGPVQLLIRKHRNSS

Another assay deals with T10, PDZRN3_2, Q9UPQ7.
T10 sequence (Q9UPQ7 414-513, limits assumed, looked up): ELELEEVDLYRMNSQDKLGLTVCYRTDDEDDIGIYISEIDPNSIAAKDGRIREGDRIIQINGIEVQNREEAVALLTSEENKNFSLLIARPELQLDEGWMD

The target of another assay is T11, PTPN13_5, Q12923.
T11 sequence (Q12923 1877-1975, limits assumed, looked up): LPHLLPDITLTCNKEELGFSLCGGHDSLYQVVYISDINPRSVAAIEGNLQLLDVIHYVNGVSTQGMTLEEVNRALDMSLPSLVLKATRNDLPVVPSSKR

The next assay concerns the target T12, SHANK2, Q9UPX8.
T12 sequence (Q9UPX8 621-730, limits assumed, looked up): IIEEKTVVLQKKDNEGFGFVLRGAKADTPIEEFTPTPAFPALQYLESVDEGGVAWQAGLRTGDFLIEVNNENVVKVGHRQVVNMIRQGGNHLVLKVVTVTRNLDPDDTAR

For another assay, the target named is T13, SHROOM3, Q8TF72.
T13 sequence (Q8TF72 20-120, limits assumed, looked up): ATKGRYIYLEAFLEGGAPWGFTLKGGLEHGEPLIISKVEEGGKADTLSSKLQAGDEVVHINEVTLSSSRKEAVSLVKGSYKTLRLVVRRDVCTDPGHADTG

The next assay deals with T14, SYNPO2L, Q9H987.
T14 sequence (Q9H987 1-98, limits assumed, looked up): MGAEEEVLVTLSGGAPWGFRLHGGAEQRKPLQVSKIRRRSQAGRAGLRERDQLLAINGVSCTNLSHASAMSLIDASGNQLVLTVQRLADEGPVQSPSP

The mark [1] stands for this setting: plain residues with an end cap or a label only (N-terminal biotin on a linker: (peg)3).
[2] abbreviates: modified: acetyl on K at position -1 from the C-terminal residue.
Setting [3] is: modified: phospho on S at position -3 from the C-terminal residue.

Sequence of Inadl_7, Q8NI35 (Q8NI35 1219-1332): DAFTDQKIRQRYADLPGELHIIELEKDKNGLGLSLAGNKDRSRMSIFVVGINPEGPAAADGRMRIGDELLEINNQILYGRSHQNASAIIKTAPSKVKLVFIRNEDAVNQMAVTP
Sequence of PREX1_1, Q8TCU6 (Q8TCU6 608-718): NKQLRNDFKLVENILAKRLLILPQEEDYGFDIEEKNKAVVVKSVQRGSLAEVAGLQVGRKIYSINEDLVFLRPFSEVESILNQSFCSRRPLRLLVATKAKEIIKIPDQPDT
Sequence of PDZD9, Q8IXQ8 (Q8IXQ8 23-120): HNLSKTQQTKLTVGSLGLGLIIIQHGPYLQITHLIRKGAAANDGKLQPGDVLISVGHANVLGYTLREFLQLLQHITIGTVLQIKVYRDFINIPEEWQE
Sequence of NHERF2_1, Q15599 (Q15599 9-91): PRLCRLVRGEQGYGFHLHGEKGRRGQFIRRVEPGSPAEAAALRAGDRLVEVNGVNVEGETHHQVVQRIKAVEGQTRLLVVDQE
Sequence of MAGIX, Q9H6Y5 (Q9H6Y5 118-211): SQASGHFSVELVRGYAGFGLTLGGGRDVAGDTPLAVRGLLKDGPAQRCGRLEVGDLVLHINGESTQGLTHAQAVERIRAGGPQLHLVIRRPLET
Sequence of SDCBP_1, O00560 (O00560 111-198): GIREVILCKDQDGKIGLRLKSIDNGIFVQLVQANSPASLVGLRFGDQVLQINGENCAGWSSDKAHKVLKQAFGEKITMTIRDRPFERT
Sequence of MAST3, O60307 (O60307 945-1048): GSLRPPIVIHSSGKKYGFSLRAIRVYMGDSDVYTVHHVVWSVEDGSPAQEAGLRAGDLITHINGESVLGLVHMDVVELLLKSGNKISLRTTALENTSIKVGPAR
Sequence of DLG5_2, Q8TDM6 (Q8TDM6 714-800): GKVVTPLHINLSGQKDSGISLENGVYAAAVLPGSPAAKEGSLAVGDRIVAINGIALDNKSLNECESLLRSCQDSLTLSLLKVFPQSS
Sequence of PARD3_1, Q8TEW0 (Q8TEW0 264-372): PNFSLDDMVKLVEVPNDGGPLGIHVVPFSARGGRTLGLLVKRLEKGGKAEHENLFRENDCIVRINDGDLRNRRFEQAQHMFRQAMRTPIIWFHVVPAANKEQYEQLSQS

YDEPTTTTSVPL [SARS-Cov2-3a, P0DTC3]: the pKd result with DLG5_2, Q8TDM6 (setting [1]) is “below the threshold”; in the assay with Inadl_7, Q8NI35 (setting [1]), “below the threshold”; with MAGIX, Q9H6Y5 (setting [1]), “below the threshold”; with MAST3, O60307 (setting [1]), “below the threshold”; with MPDZ_11, O75970 (setting [1]) it was “below the threshold”; with MPDZ_6, O75970 (setting [1]) it was “below the threshold”. The negative logarithm of the Kd (pKd) entry is “below the threshold” in the assay with MPDZ_7, O75970 (setting [1]); “below the threshold” in the assay with NHERF1_1, O14745 (setting [1]); “below the threshold” with NHERF2_1, Q15599 (setting [1]); 3.98 with PARD3_1, Q8TEW0 (setting [1]); “below the threshold” with PARD6B, Q9BYG5 (setting [1]); “below the threshold” in the assay with PARD6G, Q9BYG4 (setting [1]). Also, the pKd result with PDZD2_1, O15018 (setting [1]) is “below the threshold”; in the assay with PDZD2_4, O15018 (setting [1]), “below the threshold”; with PDZD2_6, O15018 (setting [1]), “below the threshold”; in the assay with PDZD9, Q8IXQ8 (setting [1]), “below the threshold”; with PDZRN3_2, Q9UPQ7 (setting [1]), “below the threshold”; with PREX1_1, Q8TCU6 (setting [1]), “below the threshold”. Further, the pKd entry with PTPN13_5, Q12923 (setting [1]) is recorded as “below the threshold”; in the assay with SDCBP_1, O00560 (setting [1]) it was “below the threshold”; in the assay with SHANK2, Q9UPX8 (setting [1]), “below the threshold”; with SHROOM3, Q8TF72 (setting [1]) it was “below the threshold”; in the assay with SYNPO2L, Q9H987 (setting [1]), “below the threshold”.
With DEDQHTQITKV [PTEN_Ac, P60484], the pKd result with DLG5_2, Q8TDM6 (setting [2]) was “below the threshold”; with Inadl_7, Q8NI35 (setting [2]) it was 4.2; with MAGIX, Q9H6Y5 (setting [2]), “below the threshold”; in the assay with MAST3, O60307 (setting [2]) it was 4.06; with MPDZ_11, O75970 (setting [2]), 3.78; with MPDZ_6, O75970 (setting [2]), “below the threshold”. Further, the pKd with MPDZ_7, O75970 (setting [2]) was 4.8; with NHERF1_1, O14745 (setting [2]) it was 4.85; in the assay with NHERF2_1, Q15599 (setting [2]), “below the threshold”; with PARD3_1, Q8TEW0 (setting [2]), “below the threshold”; with PARD6B, Q9BYG5 (setting [2]) it was “below the threshold”; with PARD6G, Q9BYG4 (setting [2]) it was “below the threshold”. Also, the negative logarithm of the Kd (pKd) entry in the assay with PDZD2_1, O15018 (setting [2]) is on record as “below the threshold”; with PDZD2_4, O15018 (setting [2]) it was “below the threshold”; with PDZD2_6, O15018 (setting [2]) it was “below the threshold”; with PDZD9, Q8IXQ8 (setting [2]) it was “below the threshold”; in the assay with PDZRN3_2, Q9UPQ7 (setting [2]) it was “below the threshold”; in the assay with PREX1_1, Q8TCU6 (setting [2]) it was “below the threshold”. Moreover, the pKd result was “below the threshold” with PTPN13_5, Q12923 (setting [2]); “below the threshold” with SDCBP_1, O00560 (setting [2]); 3.97 with SHANK2, Q9UPX8 (setting [2]); “below the threshold” with SHROOM3, Q8TF72 (setting [2]); “below the threshold” with SYNPO2L, Q9H987 (setting [2]).
Take RRVRKLPSTTL [RPS6KA1_-3P, Q15418]: the pKd result is on record as “below the threshold” in the assay with DLG5_2, Q8TDM6 (setting [3]); “below the threshold” with Inadl_7, Q8NI35 (setting [3]); “below the threshold” with MAGIX, Q9H6Y5 (setting [3]); “below the threshold” with MAST3, O60307 (setting [3]); “below the threshold” in the assay with MPDZ_11, O75970 (setting [3]); “below the threshold” in the assay with MPDZ_6, O75970 (setting [3]). Also, the negative-log Kd (pKd) with MPDZ_7, O75970 (setting [3]) was 3.63; in the assay with NHERF1_1, O14745 (setting [3]), “below the threshold”; with NHERF2_1, Q15599 (setting [3]), “below the threshold”; with PARD3_1, Q8TEW0 (setting [3]), “below the threshold”; with PARD6B, Q9BYG5 (setting [3]), “below the threshold”; with PARD6G, Q9BYG4 (setting [3]), “below the threshold”. Also, the pKd result with PDZD2_1, O15018 (setting [3]) is “below the threshold”; with PDZD2_4, O15018 (setting [3]), “below the threshold”; in the assay with PDZD2_6, O15018 (setting [3]), “below the threshold”; with PDZD9, Q8IXQ8 (setting [3]) it was “below the threshold”; in the assay with PDZRN3_2, Q9UPQ7 (setting [3]) it was 3.72; with PREX1_1, Q8TCU6 (setting [3]), “below the threshold”. Also, the pKd result is given as “below the threshold” in the assay with PTPN13_5, Q12923 (setting [3]); “below the threshold” with SDCBP_1, O00560 (setting [3]); “below the threshold” in the assay with SHANK2, Q9UPX8 (setting [3]); “below the threshold” with SHROOM3, Q8TF72 (setting [3]); “below the threshold” with SYNPO2L, Q9H987 (setting [3]).

In general, pKd refers to the Kd on a negative log10 scale, so that one unit is a factor of ten.
